Data taken from publication PMC12949252.

Key:
SEL1L-S658P-FLAG (mouse) = assay: co-IP
SEL1L-G585D-FLAG (mouse) = assay: co-IP

## HRD1 (endogenous, HEK293T) (from UniProt Q86TM6 1-617) (enzyme)
SEL1L-S658P-FLAG (mouse)
  percent reduction of binding against WT: 70%

B1: OS9 (endogenous, HEK293T) (natural protein)
chain: GGVGSLNLEELSEMRYGIEILPLPVMGGQSQSSDVVIVSSKYKQRYECRLPAGAIHFQREREEETPAYQGPGIPELLSPMRDAPCLLKTKDWWTYEFCYGRHIQQYHMEDSEIKGEVLYLGYYQSAFDWDDETAKASKQHRLKRYHSQTYGNGSKCDLNGRPREAEVRFLCDEGAGISGDYIDRVDEPLSCSYVLTIRTPRLCPHPLLRPPPSAAPQAILCHPSLQPEEYMAYVQRQADSKQYGDKIIEELQDLGPQVWSETKSGVAPQKMAGASPTKDDSKDSDFWKMLNEPEDQAPGGEEVPAEEQDPSPEAADSASGAPNDFQNNVQVKVIRSPADLIRFIEELKGGTKKGKPNIGQEQPVDDAAEVPQREPEKERGDPERQREMEEEEDEDEDEDEDEDERQLLGEFEKELEGILLPSDRDRLRSEVKAGMERELENIIQETEKELDPDGLKKESERDRAMLALTSTLNKLIKRLEEKQSPELVKKHKKKRVVPKKPPPSPQPTEEDPEHRVRVRVTKLRLGGPNQDLTVLEMKRENPQLKQIEGLVKELLEREGLTAAGKIEIKIVRPWAEGTEEGARWLTDEDTRNLKEIFFNILVPGAEEAQKERQRQKELESNYRRVWGSPGGEGTGDLDEFDF
SEL1L-G585D-FLAG (mouse)
  percent reduction of binding against WT: 90%
